Data set [1] concerns the target T1, SARS-CoV-2 nucleocapsid N-terminal RNA-binding domain (NTD) (SARS-CoV-2, UniProt P0DTC9 46-174). The experiment in a line: EMSA competition; vs 32P-probe RNA; n=6. Particulars: protein: recombinant; tags: His-tag (pET-15b). For orientation: In EMSA bound probe runs differently from free probe, usually more slowly.
The target in data set [2] is SARS-CoV-2 nucleocapsid protein full length (NP) (SARS-CoV-2, UniProt P0DTC9 1-419).
The target in data set [3] is T1, SARS-CoV-2 nucleocapsid N-terminal …. Nature of the data set: EMSA competition; vs 32P-probe RNA; n=4. To be noted: protein: recombinant; tags: His-tag (pET-15b).
For data set [4] the target is unchanged. Nature of the data set: EMSA competition; vs 32P-probe RNA; n=3. To be noted: protein: recombinant; tags: His-tag (pET-15b).
Data set [5] shares this target. Nature of the data set: EMSA competition; vs 32P-probe RNA; n=7. To be noted: protein: recombinant; tags: His-tag (pET-15b).
The target is the same in data set [6]. Nature of the data set: EMSA; 800 ng NTD, 5 ng RNA. To be noted: protein: recombinant; tags: His-tag (pET-15b); label: 32P-CTP internal.

One may read the IC50 as the point on the concentration scale where inhibition reaches its midpoint. On to CCAGCG (ssRNA) [mIn-1 (mIn-1-1)], for which the IC50 in data set [1] was 3.48 ± 1.46 µM.
Take CGAGGCCACGCGGAGUACGAUCGAGUGUACAG (ssRNA) [FITC-probe RNA (32-base)]: the binding result in data set [2] was “binds”.
Take GGGGGG (ssRNA) [G6]: the IC50 in data set [3] came to 0.62 ± 0.07 µM.
As to AAAAAA (ssRNA) [A6], the IC50 in data set [4] is 22.9 ± 16.4 µM.
As for GGGGGGGGGGGG (ssRNA) [G12], in data set [2], the binding result was “binds”.
For the molecule CCGGCG (ssRNA) [In-1], the IC50 in data set [5] came to 34.3 ± 27.8 µM.
Turning to GGGCGAGGCCACGCGGAGUACGAUCGAGUGUACAG (ssRNA) [32P-probe RNA (T7 transcript)], the binding result in data set [6] was “binds”.

The values are drawn from PMC11033527, “Inhibition of SARS-CoV-2 nucleocapsid protein–RNA interaction by guanosine oligomeric RNA”.
